Measurements taken from the nanobody polyreactivity screen of Harvey et al. (2022).

Assay: yeast display, Sf9 membrane polyspecificity reagent, FACS + sequencing; frameworks hold sequencing errors
In short: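 Polyreactivity labels are assigned by the sorting gate from which each nanobody was recovered. The gates were low and high (top ~1%), set on anti-HA fluorescence for expression and streptavidin fluorescence for reagent binding. Before sorting, galactose-induced (36–48 hours) yeast display cells were stained for 1 hour at 4 °C with 10% biotinylated, detergent-solubilized Sf9 membrane reagent.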

Sequence	polyreactivity (PSR sort gate)
QVQLVESGGGLVQAGGSLRLSCAASGSIFYYYAMGWYRQAPGKERELVATITSGGTTYYADSVKGRFTISRDNAKNTVYLQMISLKPEDTAVYYCAKRVKYHLYWGQGTQVTVSS	low polyreactivity
QVQLVESGGGLVQAGGSLRLSCAASGSISSQYAMGWYRQAPGKERELVAAISYSGGSTYYADSVKGRFTISRDNAKNTVYLQMNSLKPEDTAVYYCAAETSYYTRWFDGHYYYWGQGTQVTVSS	high polyreactivity
QVQLVESGGGLVQAGGSLRLSCAASGSIYHPYALGWYRQAPGKERELVAAISKSGGNTYYADSVKGRFTISRDNAKNTVYLQMNCLKPEDTAVYYCAALDYWGQGTQVTVSS	low polyreactivity
QVQLVESGGGLVQAGGSLRLSCAASGYIFDGNAMGWYRKAPGKERELVAPITWTGGSTYYADSVKGRFTISRDNAKNTVYLQMNSLKPEDTAVYYCAKPYDPGPYHSSYRATDDYWGQGTQVTVSS	low polyreactivity
QVQLVESGGGLVQAGGSLRLSCAASGSTFSSYAMGWYRQAPGKERELVAAINWSGTRTYYADSVKGRFTISRDNAKNTVYLQMNSLKPEDTAVYYCAAVLSLSSRQGVITKGDYWGQGTQVTVSS	low polyreactivity
QVQLVESAGGLVQAGGSLRLSCAASGSTFYTYAMGWYRQAPGKERELVAAISWSGGSTYYADSVKGRFTISRDNAKNSVYLQMNSLKPEDTAVYYCAARRVKYISLDYWGQGTQVTVSS	low polyreactivity
QVQLVESGGGLVQAGGSLRLSCAASGSTFWKYIMGWYRQAPGKERELVAAITTRGGSTYADSVKGRFTISRDNAKNTVYLQMNSLKPEDTAVYYWAATKFWYYGYDYWGQGTQVTVSS	low polyreactivity
QVQLLESGGGLVQAGGSLRISCAASGFIFDYYMGWYRQAPGKERELVARISYTGGSTYYADSVKGRFTISRDNAKNTVYLQMNSLKPEDTAVYYCATRGAEAERFASYEFDYWGQGTQVTVSS	low polyreactivity
QVQLVESGGGLVQTGGSLRLSCAASGRIFRSYAMGWYRPAPGKERELVAAISGSGGSTYYADSVKGRFTISRDNAKNTVYVQMNSLKPEDTAVYYCNACKVHPFSTRFYYWGQGTQVTVSS	low polyreactivity
QVQLVESGGGLVQAGGSLRLSCAASGSTLSLYAMGWYRQAPGKERELVAAITSSGGTYYADSVKGRFTISRDNAKNTVYLQMNSLKPEDTAVYYCNAYAKDARSYGYHRVNYWGQGTQVTVSS	high polyreactivity
QVQHEESGGGLVQAGGSLRISCAASGTTFFTYAMGWYRPAPGKEREFVAAISWSDDSTYYADSVKGRFTISRDYAKNTVYLQMNSLKPEDTAVYYCAAEWGQRGGGGYYYWGQGTQVTVSS	low polyreactivity
QVQLVESGGGLVQAGGSLRISCAASGITLYNYPMGWYRQAPGKERELVAAISLSGGRTYYAESVKGRFTISRDNAKNTVYLQMNSLQTEDTAVYYCAADWLNSDPYNYWGQGTQVTVSS	low polyreactivity
QVQLVESGGGLVQAGGSLRLSCAASGITFYPYAMGWYRQAPGKERELVAAITLSTGTTYYADSVKGRFTISRDNAKNTVYLQMNSLKPEDTAVYYCAVEGYWYAGWYAMDYWGQGTQVTVSS	low polyreactivity
QVQLVESGGGLVQAGGSLRISCASSVRILGVYFMGWYRQAPGKERELVAAISGGGRTNYADSVKGRFTISRDNAKNTVYFQMNRLNPEDTAVYYCNAERPYQFYQCIYSWYYYWGQGTQVTVSS	low polyreactivity
QVQLVESGGGLFQAGGSLRLICAASGRIFDVNAMGWYRQAPGKERELVAAISWSGGITYYADSVKGRFTISRDNAKNTVYLQINSLKPEDTAVYYCAADKYQGYTFYQGYPGGGGYWGQGTQVTVSS	low polyreactivity
QVQLVESGGGLVQAGGSLRLSCAASGRIFFTYAMGWYRQAPGKERELVASITGSGGSTYYADSVKGRFTISRDNAKNTVYLQMNSLKPEDTAVYYCAAALFRRQLYRKFYYWGQGTQVTVSS	low polyreactivity
QVQLVESGGGLVQAGGSLRLSCAASGRTIYLNAMGWYRQAPGKERELVAAISRNGGSTYYADSVKGRFTISRDNAKNTVYLQMNSLKPEDTAVYYCAAEWDDGRSWYWYYLVGFEYWGQGTQVTVSS	high polyreactivity
QVQLVESGGGLVQAGGSLRLSCAASGSTFHLYAMGWYRQAPGKEREIVAAIRGRGGNTYADSVKGRFTISRDNAKNTVYLQMNSLKPEDTAVYYCAAPLLRDLRSPYSYNYWGQGTQVTVSS	low polyreactivity
QVQLVESGGGLVQAGGSLRLSCAASGSTFTYNAMGWYRQAPGKERELVAAIRSNGGSTYADSVKGRFTISRDNAKNTVYLQMNCLKPEDTAVYYWAARWRDYYRWGSRGGYGYWGQGTQVTVSS	high polyreactivity
QVQLVESGGGLVQAGGSLRLSCAASGRTFSRYAMGWYRQAPGKERELVAAISRSGGITYYADSVKGRFTISRDNAKNTVYLQMNSLKPEDTAVYYCAAYVRGWGGDDYWGQGTQVTVSS	high polyreactivity
QVQLVESGGGLVQAGGSLRLSCAASGSIVNIYAMGWYRQAPGKERQLVARISCSGVSTYYADSVKGRLTISRDHAKNTVYLQMNSLKREDTAVYDCAARYGRVYYYGWYWLYYWGQGTQVTVSS	high polyreactivity
QVQVVESGGGLVQAGGSLRLSCAASGRIFGVNAMGWYRQAPGKERELVAVISSGGSTYYADSVKGRFTISRDNAKKTVYLQMNSLKPEDTAVYYCNAVVGRWFPYNLSDYWGQGTQVTVSS	low polyreactivity
